Test results reported in patent US20250263444A1 (KOREA UNIVERSITY RESEARCH AND BUSINESS FOUNDATION SEJONG …, published 2025).

T1: vIRF3 (Δ250-280) mutant (Kaposi's sarcoma-associated herpesvirus …, UniProt F5HIC6 1-566)
T1 construct: V5-tagged, stably expressed in LECs; also called V5/vIRF3(Δ250-280); V5-vIRF3(Δ250-280)
T1 sequence: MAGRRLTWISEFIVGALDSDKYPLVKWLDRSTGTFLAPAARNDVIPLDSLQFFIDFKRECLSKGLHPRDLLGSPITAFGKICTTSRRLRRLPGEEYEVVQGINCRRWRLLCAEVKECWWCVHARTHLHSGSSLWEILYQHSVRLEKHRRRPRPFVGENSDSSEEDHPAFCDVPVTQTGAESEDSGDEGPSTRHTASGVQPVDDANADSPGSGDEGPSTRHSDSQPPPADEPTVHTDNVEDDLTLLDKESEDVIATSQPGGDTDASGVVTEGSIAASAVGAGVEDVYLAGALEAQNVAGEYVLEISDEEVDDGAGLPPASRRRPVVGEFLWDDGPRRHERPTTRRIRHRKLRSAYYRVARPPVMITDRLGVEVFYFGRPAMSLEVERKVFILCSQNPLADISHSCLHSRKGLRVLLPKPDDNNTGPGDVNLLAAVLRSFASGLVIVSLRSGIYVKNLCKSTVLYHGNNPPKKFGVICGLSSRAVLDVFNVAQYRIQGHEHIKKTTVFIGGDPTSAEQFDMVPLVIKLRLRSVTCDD

T2: vIRF3 mutant with deleted aa250-260 (Kaposi's sarcoma-associated herpesvirus …, UniProt F5HIC6 1-566)
T2 construct: V5-tagged, expressed in LECs; end of the protein at 566 from the TM3 range (430-566); also called vIRF3(Δ250-260)
T2 sequence: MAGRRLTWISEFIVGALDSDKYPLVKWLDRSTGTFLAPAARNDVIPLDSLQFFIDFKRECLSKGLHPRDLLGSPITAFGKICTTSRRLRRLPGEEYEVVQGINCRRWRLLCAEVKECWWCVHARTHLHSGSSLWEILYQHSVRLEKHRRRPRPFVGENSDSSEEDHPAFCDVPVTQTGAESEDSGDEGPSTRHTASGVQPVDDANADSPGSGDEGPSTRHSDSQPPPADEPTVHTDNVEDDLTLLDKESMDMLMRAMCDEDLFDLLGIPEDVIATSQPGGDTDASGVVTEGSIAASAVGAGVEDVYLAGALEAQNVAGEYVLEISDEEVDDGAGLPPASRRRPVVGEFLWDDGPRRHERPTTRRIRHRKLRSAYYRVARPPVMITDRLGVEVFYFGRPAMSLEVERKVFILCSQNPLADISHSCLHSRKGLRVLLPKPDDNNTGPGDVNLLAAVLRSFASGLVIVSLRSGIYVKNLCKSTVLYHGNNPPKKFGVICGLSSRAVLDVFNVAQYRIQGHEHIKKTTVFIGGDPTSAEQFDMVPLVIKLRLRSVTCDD

B1: Kaposi's sarcoma-associated herpesvirus (KSHV) viral interferon regulatory factor 3 (vIRF3), wild type (other)
chain: MAGRRLTWISEFIVGALDSDKYPLVKWLDRSTGTFLAPAARNDVIPLDSLQFFIDFKRECLSKGLHPRDLLGSPITAFGKICTTSRRLRRLPGEEYEVVQGINCRRWRLLCAEVKECWWCVHARTHLHSGSSLWEILYQHSVRLEKHRRRPRPFVGENSDSSEEDHPAFCDVPVTQTGAESEDSGDEGPSTRHTASGVQPVDDANADSPGSGDEGPSTRHSDSQPPPADEPTVHTDNVEDDLTLLDKESACALMYHVGQEMDMLMRAMCDEDLFDLLGIPEDVIATSQPGGDTDASGVVTEGSIAASAVGAGVEDVYLAGALEAQNVAGEYVLEISDEEVDDGAGLPPASRRRPVVGEFLWDDGPRRHERPTTRRIRHRKLRSAYYRVARPPVMITDRLGVEVFYFGRPAMSLEVERKVFILCSQNPLADISHSCLHSRKGLRVLLPKPDDNNTGPGDVNLLAAVLRSFASGLVIVSLRSGIYVKNLCKSTVLYHGNNPPKKFGVICGLSSRAVLDVFNVAQYRIQGHEHIKKTTVFIGGDPTSAEQFDMVPLVIKLRLRSVTCDD
B2: pyruvate kinase M2 (PKM2) (enzyme)
chain: not shown
notes: Either endogenous PKM2 of LECs or HA-tagged hPKM2 from pCMV-HA-hPKM2 in 293T cells; also called PMK2; hPKM2

How the values were obtained:
[1] = biological target: B2; test: cell-based or functional assay
vIRF3 (Δ250-280) mutant = biological target: T1, vIRF3 (Δ250-280) mutant; test: told in words; LECs expressing the mutant
[2] = biological target: T2, vIRF3 mutant with deleted aa250-260; test: IP with anti-PKM2, blot with anti-V5, LEC lysates

## B1
[1]
  Boyden chamber cell migration of LECs: 2 fold

## B2
vIRF3 (Δ250-280) mutant
  binding result: no binding
[2]
  binding result: no binding
